Protein production data for 16 sequences are collected here from a protein production outcome set (Wang et al. 2014).

This data set is described as follows: label from the status in PepcDB records.
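Further: failed if final PepcDB status was selected cloned or expressed and not failed if soluble or beyond.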

In the case of “MVSPKKESKSMKILKNLALPIAMALGVLAWPILSPLSFLIPYMIFLMLFFTFLKISPRDMHFSRLHLLLALIQITLAIGGFFAFRLLDPIVAEGVMICFICPAATASSVIIGMLGGNIAFGATYVLLTHMGVAVLGPLLFSSLSTAHADMPFWSSVIHILWGVLPLVVVPLLAAWIIRFTSPRTHARLLRIPQMAFWLWVTSLAIIMAKTTGYVMAQGSDSIRLELLLALGGLLSCLLQFGLGKWLSKRYLKESITAGQALGQKNTSLAIWMSLTYLNPIASIAPASYVVWQNSLNSIQIWLYDKRKNKTDRQ”, the protein production result was “failed”.

“MVSRRLQDSANRLFGKAATFIENGKYDRALESLKDVDKIMKKEKDPEISFHTLFLKGYTISKAGDPEGALEFYGEALKIIEPLFSGEPGKKNYQKFISNMIEEIGSSFDELNDEERAEELLGPMEKQFEKVVRTFEELVKSDPENQEYLSGFLEIIGSMGVCYQAGQLMDQAVKLFDKKIDIYEKLFELESGETDLLGDFDEDIELYGYLFRNYGHLKEAEGNYFRAAGIYRKMIEKDPENSMAEYYLSYTYSYHGSLYSGMENLEKAERYYEEAVELMDKGYKEFPEDYAYAVSLANIHESYGVAFSNRKYLEKSIANYTKAREIYRDLIINHPSEFARNKKIAMYLDDLGDRFSKIGEFEAAELCYKDKLDVFRNLHDEDPEDLNPIFEISDTYEELGDIFAEHGETGKAKAYYEKEIEIYESLLETEPDALDYKTYMAEVQATIGKLYLDEEPEKAQKYFEDALSVLENNFELEPEMDIHYSVLKKVLNNFIQLFKNQEEHEKAAEMYSKLLAVQQRMLDLNPEEREYKEDLAVTYTNLALLHSERGDIEQEARYHRLALDIHEKILEESSDYPLFLQRFVTGIYLLGSRLKLDEESRGKESGIVKEYLELAKKAENKLYAVKPEIMEDKELIAEIAEKMGISFRENEMYEEAIEEFKRSLAIREKLHEKNPENLNYLTVLEGIFHQMGITFLAQKDLEKAKETLEKAMDLNAKLLETDPEDFNYLARSSMIFETYSSVLENMGKSEEAAKYLAKAEEINAKLGYSNE”: the protein production entry is “failed”.

As for “MVSRTGRTHLPLVDSLKEKLPYILCGLLALAGVLLVWSLGSTFLPVLLALILAYVLNPLVTWLEARRVPRVAAVLLVMALIVVVTAGAVTFFAVSIQKEVARVEINLPAYATRLYDLIPGQAKAYLEIETPDKLYARIDSLVDELRGASFDLVKGALGVVQRAFSSTLGFLLTVAGYFITPVYLYYFLADLPRLRDGIMALVPGRARDRAAMLGSEIDGVLSGFVRGQLAVCAILAVLYSIGLVMIGIDLAIVIGSLSGFLFIIPYVGTVFGIVVSMIMAFLKFHDMLHPLLCLGWFAIVQAIEGALITPAVVGNTVGLHPVVAILALFIGGQWFGIFGMLLAVPVAAVIKVLLRHGVEWYRATPFFERP”, the protein production entry is on record as “failed”.

For “MVSSAIVLGLTAATVLVFTGIGLFAARGRIDSVETYISARDSAGSGTLAATVIASMMGVWILLSPAEAGAAFGGLPAVLGYAIGSAIPLLLFIPVGARIREVMPAGHSLTEFAYARFGSGMYLLVLLVSVFYMFIFLAAEMTGIAGALALVADVPLWQTSLLIGGFVLVYTAYGGLLASIVTDTVQTLVILPLLAVGFGGALLSLGGTSEFHATVVSADPTLLDPGFGPGLEFGLYVAFALLGANMLNQGVWQRVYAADGDGALRRGMGIAAVVVVPMLLLSGLFGIAAAGLGLTESGSASIAFFLVVAEAFPTWVTLAVVVLAVLLVMSSADTMFNAIASVVTADLARLLDDPDQRTLWLGGRGLTVAVALAAMFIGAQGYSVLQLFLTADLLAAGVFVPFLAGLYTERLTGPGALVSGIAGLLVGFTYFPSLRGLMAAIPGVGSMLPAPSFLIAFAGATLVSAALTAVATLLGGADADLDSLGREVRALDDPVADGGSEQ”, the protein production entry was “failed”.

In the case of “MVSSSNNSSIAKAFVTVAAIFIIFAGIKTAANILVPFLLSVFIAIICNPLINKASEYKIPKAVSVIFVIVVFVTMAVFLTGLVGSSLNELSQQIPQYRIQLKEQFTWLTSFLNSHDIQLSSSIVTEYFDPAAAMGLAADMLSSFGSVMTNLFLIILTVVFMLFESSTIPHKLHLALDDPQMRLNQIERFLSSVNQYIAIKTLVSIATGCIVSLMLWIFGLDFFLLWGVLAFLLNYIPNIGSIIAAVPPMTLAILQLSIGEAGAIGLGFVLINMVMGNIIEPRYLGKGLGLSTLVVFLSLIFWGWLLGTVGMLLSVPLTMILKIGLESSPEGRWLAVMLSDEVELVDKTEQALLD”, the protein production entry is recorded as “failed”.

For “MVSTLGSDTFTSISAHDLHGKLGNIHLIDVRENDDFKEGHIPTSRNIPMDILLKEPEKYINKTDEYYIVCQAGVKSEKTCKELWSKGYKVINIKDGTDSYKQPLER”, the protein production result is given as “failed”.

As to “MVSVNSSHCFYNDSFKYTLYGCMFSMVFVLGLISNCVAIYIFICVLKVRNETTTYMINLAMSDLLFVFTLPFRIFYFTTRNWPFGDLLCKISVMLFYTNMYGSILFLTCISVDRFLAIVYPFKSKTLRTKRNAKIVCTGVWLTVIGGSAPAVFVQSTHSQGNNASEACFENFPEATWKTYLSRIVIFIEIVGFFIPLILNVTCSSMVLKTLTKPVTLSRSKINKTKVLKMIFVHLIIFCFCFVPYNINLILYSLVRTQTFVNCSVVAAVRTMYPITLCIAVSNCCFDPIVYYFTSDTIQNSIKMKNWSVRRSDFRFSEVHGAENFIQHNLQTLKSKIFDNESAA”, the protein production entry is “failed”.

For “MVTKILKAPDGSPSDVERIKKESDYLRGTLKEVMLDRISAGIPDDDNRLMKHHGSYLQDDRDLRNERQKQKLEPAYQFMLRVRMPGGVSTPEQWLVMDDLSQKYGNGTLKLTTRETFQMHGILKWNMKKTIQTIHSALLDTIAACGDVNRNVMCASNPYQSEIHSEVYEWSKKLSDDLLPRTRAYHEIWLDEERVAGTPEEEVEPMYGPLYLPRKFKIGIAVPPSNDIDVFSQDLGFIAIVEDGKLIGFNVAIGGGMGMTHGDTATYPQLAKVIGFCRPEQMYDVAEKTITIQRDYGNRSVRKNARFKYTVDRLGLENVKEELENRLGWSLEEAKPYHFDHNGDRYGWVEGIEDKWHFTLFVEGGRITDYDDYKLMTGLREIAKVHTGEFRLTANQNLMIANVSSDKKEEISALIEQYGLTDGKHYSALRRSSMACVALPTCGLAMAEAERYLPTLLDKIEEIIDENGLRDQEITIRMTGCPNGCARHALGEIGFIGKAPGKYNMYLGAAFDGSRLSKMYRENIGEADILSELRILLSRYAKEREEGEHFGDFVIRAGIIKATTDGTNFHD”, the protein production entry is given as “failed”.

Consider “MVVKFTKSEALHKEALEHIVGGVNSPSRSFKAVGGGAPIAMERGKGAYFWDVDGNKYIDYLAAYGPIITGHAHPHITKAITTAAENGVLYGTPTALEVKFAKMLKEAMPALDKVRFVNSGTEAVMTTIRVARAYTGRTKIMKFAGCYHGHSDLVLVAAGSGPSTLGTPDSAGVPQSIAQEVITVPFNNVETLKEALDKWGHEVAAILVEPIVGNFGIVEPKPGFLEKVNELVHEAGALVIYDEVITAFRFMYGGAQDLLGVTPDLTALGKVIGGGLPIGAYGGKKEIMEQVAPLGPAYQAGTMAGNPASMASGIACLEVLQQEGLYEKLDELGAMLEKGILEQAAKHNIDITLNRLKGALTVYFTTNTIEDYDAAQDTDGEMFGKFFKLMLQEGVNLAPSKYEAWFLTTEHTKEDIEYTIEAVGRAFAALADNK”, for which the protein production entry was “not failed”.

As for “MVVKVINKKQDKFYFKLGMFILIFLILGVSLLNIIGINVDKTYENGNGMYAHIVDYSLPWVKVANNKNTSENTYSIKNIILSAAGLDINKPENVISKEVSFLGEALPKSIKSECPNESFTLDDKDVVKSTSGSVQNEPLKNINENIYDPKLKKALDKSKPEILIYHSHTTEAYKPYPADSLNSTQNVCAVGDELVKELGEKYGIYAINDKTVHNVVDYNKSYTRSGETLDKYLKQYGDFKMIIDMHRDSDVPKSKVTARINGEDVAKFMFVMTRKNPHFDKNMALVNGLVSICNKDFPGIFNGIYYYDYGINYYNQQKSNNAFLLEVGSDINTIDEAKGTSKYLARIIAEYLNGKK”, the protein production result is “failed”.

With “MVVMYFLFPETTNVVIVSALNFAALFLSFFTHYTSSRKDEDLTILAFSCLFSSLLSLFFLRIFLMNPKNAWMFLSSSKLILAEGFFFFLIGKKKNSFKWLVVLTFVILFAVSVLRFDFTLHLESVSLALFSLLLLIRKPQTTLLSVSLFLYSISSIFFYFFRSAYPYHVASGSIFLMWHFVKKYVETPKEEAEKLSKELEIPPERISSAVTNLYNFLIEILRIIPEILREDDQNRVREMLSKYFSQEVSSYFPKLRDAFSKFAEEYISFLEEKQKFQDMYVVLTKNLAHNLKNPVNAIYVSAQLLKQQFPETSPVVRNIEKLCHEMTEEIERILKTSIGRSEVLRKNDVEKALEPILETARLKNLETDIEMEFDELEIDKDAFLALVLNLFSNAVKYTPSGRVVLKIEKKNDKINLRVSDTGPGLKEQNGFGLFTVKKLVNYLNGSMEVIKKDGTTFVITLPLRRDKNDSTDRGR”, the protein production result is on record as “failed”.

For the sequence “MVVRSLSVVGLGPAGAGAAAAASRLGVKPVIYEAMEKPGLKPCGRGLPIVDGGLPVSIPRDSILRRIRGARMYVDGEFLFEMKGFLDGYIVDKTVMLEAIAVEAGGEIHYRAKYKPGSSTVRLPGGGEARVEQGVFAGGHPYYGGAKIAAVQWIMKTGPRSDPVGDMLEIHFDTELLGYAYIFPKEEGFIEVGIGGFATPRELRERLESFIHKRSDLRELERVKLEGARIAIGGLDLGVVDGLVKAGEAAGFVLPLTGEGIRPSLISGYEAASALIEGGSPLEKLRSLPIARAVSMQKRILDLVAGMSVEERRSLLKSLTPRAHAEIALGMFRKHILLKELARSPRALSLLGLVTRLI”, the protein production result was “failed”.

Regarding “MVVYGADVICASCVNAPTSKDIYDWLQPLLKRKYPNISFKYTYIDITKDNDNLTDHDLQFIERIEQDELFYPLITMNDEYVADGYIQTKQITRFIDQKLVNE”, the protein production result is “not failed”.

In the case of “MVVYGKQKYIMKRCFYMNKKLKTEAVDHLFQAILTLKSTEECYSFFEDVCTVNELLSFSQRYEVAKMLREKRTYLEIADKTGASTATISRVNRSLNYGNDGYDMVFKRLEDQAAEDNEA”, the protein production result is recorded as “failed”.

Take “MVWTGLLIGVLFGVILQRGRICFNSAFRDVLIFKDNYLMRLAALTLGLESITLLIFAQAGIITLNPKPLNWIGNIIGGFIFGMGMVLAGGCASGVTYRTGEGMTTAWFAALAYALTAHATKKGLFSGWIKWLSNYTVTVSNTNPVYAPKTGPTIATVLGISPWIASIIFLALMLWYAFGVKNKSQRPSKLNWIAASVLIAILAPIAWWASASTGRNYGLGITGGWINLVSVYANNASLNWEGAEILGIIIGAAISAIAGKEFKLRMPKNPKTYAQVLLGGFLMGFGAVTAGGCNIGHFLTGVPTLAISSIVASIFFILGNWTMAWFLFGRQK”: the protein production entry is reported as “failed”.

Turning to “MVYDNIKREIIGMLKRMPNKQADWDNDLLPTLKAMFNPKSVSNAKSQLISEGVISQEIVDGKKIITLIKDPYELQAPNVFDEEMFLAYYTDKLKEYFKHKLSTEGPEWDIFDVKEFIMHFPESGDLNDKLIEHPYEVRKSITNVYIEAYEELFNETPNVEFIHIRNPIDCRISLSELSSAHKGKLVEFRAMILQATKLKLRYAKGFYYCPKCGATKTLDLGFWDKPKEVGKSLTCPADGCDCKGLIFDEDLSGKVDFQEIKVQTPLQESIYANKHSTTVFYEFNKPKKAVYSGYVKIVGVPIVKENKNGSVGELYIHAFYIEKDDEDIEEIAKNLNEKDLELINRIAKDKNVIQKLSDYAFREVTGYDMIKRAVLLQLVSSGTNIDMRTSIHILMISDPGVGKSTLMESLIQKFPFVKKVYAVTSSGPGLVGSVVREKAEFGDSWVLKAGVLTEADGGVVCIDEFSRNKEVYDYLLGVMEQQKIEINKAGVIDAVLPARVAILAACNPRFGRFNPDLTVWEQINLPKELLDRFDLIFVIKDKIDKKKDEDIADFSIDNYNSKVRERKGKSSGKKFVINGVELNDELLLKYVLYARQIEPEISDEARKIIKEYYVSVRKMSEAKGTFGISARQLGSIIRLAVAHAKLRLSEVVKAVDAEEAIRLVDTCLKQIAYDPESGSIDIDKIAGTPKSKRDKVEKVLNIIKEISNSRDDGLAPEEEIYERAERAGLSEKEVEDAINYLKRVGDIYSPKSGYWQLMS”, the protein production entry is “failed”.
